The values that follow come from article PMC3103603 (Immunity, 2011).

For the experiment, the target named is T1, wild-type human B7-H2Ig fusion protein (human, UniProt O75144 19-256).
T1 sequence (looked up): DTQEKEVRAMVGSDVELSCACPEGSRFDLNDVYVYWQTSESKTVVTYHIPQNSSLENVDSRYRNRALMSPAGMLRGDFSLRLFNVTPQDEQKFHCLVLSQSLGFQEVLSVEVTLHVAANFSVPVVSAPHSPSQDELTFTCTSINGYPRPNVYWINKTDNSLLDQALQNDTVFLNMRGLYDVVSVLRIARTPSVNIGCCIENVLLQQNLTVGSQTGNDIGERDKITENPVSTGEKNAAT
As to the kind of experiment: flow cytometry on cells. On the technique in general: A flow cytometer gives signals particle by particle.

B1: human ICOSIg fusion protein (Fc fusion, UniProt Q9Y6W8 21-140, looked up)
chain: EINGSANYEMFIFHNGGVQILCKYPDIVQQFKMQLLKGGQILCDLTKTKGSGNTVSIKSLKFCHSQLSNNSVSFFLYNLDHSHANYYFCNLSIFDPPPFKVTLTGGYLHIYESQLCCQLK
For the molecule B1, the binding result was “binds”.
